Laboratory results: the supplement of paper PMC9112550, “Optimization of the antimicrobial peptide Bac7 by deep mutational scanning” (BMC Biology, 2022)

The sequences below were run on Escherichia coli TOP10 (assay: shrunken log2 fold change of peptide-encoding DNA abundance (4.5 h post-induction vs induction); higher = less antimicrobial activity (less host growth inhibition)). Conditions: time post-induction: 4.5 h; library: site-saturation at positions 5, 18, 19, 20.
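Further: peptides expressed intracellularly from a pBAD plasmid library in pooled LB shake-flask culture, induced with 0.3% L-arabinose, DNA abundance read by NGS, three biological replicates, DESeq2 with apeglm shrinkage.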

Sequence	shrunken log2 fold change
RRIRCRPPRLPRPRPRPIGKPRP	-0.188
RRIRCRPPRLPRPRPRPIIHPRP	-0.799
RRIRCRPPRLPRPRPRPIKAPRP	0.0144
RRIRCRPPRLPRPRPRPIKCPRP	-0.165
RRIRCRPPRLPRPRPRPIKQPRP	-0.062
RRIRCRPPRLPRPRPRPIKRPRP	-0.628
RRIRCRPPRLPRPRPRPIMQPRP	-0.193
RRIRCRPPRLPRPRPRPINYPRP	-0.271
RRIRCRPPRLPRPRPRPIQRPRP	0.0673
RRIRCRPPRLPRPRPRPIRIPRP	0.0952
RRIRCRPPRLPRPRPRPIRMPRP	-0.339
RRIRCRPPRLPRPRPRPIRSPRP	-0.389
RRIRCRPPRLPRPRPRPISEPRP	-0.0601
RRIRCRPPRLPRPRPRPISRPRP	-0.503
RRIRCRPPRLPRPRPRPIWFPRP	0.21
RRIRCRPPRLPRPRPRPIWLPRP	0.122
RRIRCRPPRLPRPRPRPIYMPRP	-1.29
RRIRCRPPRLPRPRPRPKACPRP	0.0182
RRIRCRPPRLPRPRPRPKCLPRP	0.036
RRIRCRPPRLPRPRPRPKCWPRP	0.302
RRIRCRPPRLPRPRPRPKDEPRP	0.393
RRIRCRPPRLPRPRPRPKDLPRP	-0.46
RRIRCRPPRLPRPRPRPKEMPRP	0.0303
RRIRCRPPRLPRPRPRPKETPRP	-0.0766
RRIRCRPPRLPRPRPRPKEWPRP	0.0878

Sequence	shrunken log2 fold change
RRIRCRPPRLPRPRPRPKFQPRP	-0.0341
RRIRCRPPRLPRPRPRPKFVPRP	-0.155
RRIRCRPPRLPRPRPRPKHEPRP	-0.000422
RRIRCRPPRLPRPRPRPKIQPRP	-0.156
RRIRCRPPRLPRPRPRPKKYPRP	-0.485
RRIRCRPPRLPRPRPRPKMCPRP	-0.164
RRIRCRPPRLPRPRPRPKPQPRP	0.324
RRIRCRPPRLPRPRPRPKRTPRP	0.642
RRIRCRPPRLPRPRPRPKSAPRP	0.146
RRIRCRPPRLPRPRPRPKSMPRP	-0.541
RRIRCRPPRLPRPRPRPKSNPRP	-0.274
RRIRCRPPRLPRPRPRPKTVPRP	-0.109
RRIRCRPPRLPRPRPRPKVKPRP	-0.133
RRIRCRPPRLPRPRPRPKWNPRP	-0.373
RRIRCRPPRLPRPRPRPKYFPRP	-0.501
RRIRCRPPRLPRPRPRPKYYPRP	0.167
RRIRCRPPRLPRPRPRPLADPRP	0.4
RRIRCRPPRLPRPRPRPLANPRP	0.452
RRIRCRPPRLPRPRPRPLCFPRP	-0.0241
RRIRCRPPRLPRPRPRPLCIPRP	-0.353
RRIRCRPPRLPRPRPRPLCLPRP	-0.525
RRIRCRPPRLPRPRPRPLECPRP	-0.354
RRIRCRPPRLPRPRPRPLFEPRP	0.193
RRIRCRPPRLPRPRPRPLFFPRP	-0.273
RRIRCRPPRLPRPRPRPLHSPRP	-0.383

Sequence	shrunken log2 fold change
RRIRCRPPRLPRPRPRPLIFPRP	-0.514
RRIRCRPPRLPRPRPRPLMLPRP	-0.646
RRIRCRPPRLPRPRPRPLNIPRP	-0.379
RRIRCRPPRLPRPRPRPLPCPRP	0.0339
RRIRCRPPRLPRPRPRPLPHPRP	0.102
RRIRCRPPRLPRPRPRPLPSPRP	0.214
RRIRCRPPRLPRPRPRPLQAPRP	0.646
RRIRCRPPRLPRPRPRPLQKPRP	-0.0859
RRIRCRPPRLPRPRPRPLRGPRP	0.835
RRIRCRPPRLPRPRPRPLSDPRP	0.0896
RRIRCRPPRLPRPRPRPLSIPRP	-0.917
RRIRCRPPRLPRPRPRPLTFPRP	-0.419
RRIRCRPPRLPRPRPRPLTYPRP	-0.19
RRIRCRPPRLPRPRPRPLVAPRP	0.033
RRIRCRPPRLPRPRPRPMDRPRP	-0.0115
RRIRCRPPRLPRPRPRPMEAPRP	-0.0255
RRIRCRPPRLPRPRPRPMFVPRP	-0.261
RRIRCRPPRLPRPRPRPMHWPRP	0.00478
RRIRCRPPRLPRPRPRPMIDPRP	0.0647
RRIRCRPPRLPRPRPRPMLDPRP	0.0729
RRIRCRPPRLPRPRPRPMMHPRP	-0.175
RRIRCRPPRLPRPRPRPMNFPRP	-0.383
RRIRCRPPRLPRPRPRPMNPPRP	-0.24
RRIRCRPPRLPRPRPRPMPPPRP	0.914
RRIRCRPPRLPRPRPRPMRVPRP	0.839

Sequence	shrunken log2 fold change
RRIRCRPPRLPRPRPRPMVAPRP	0.0319
RRIRCRPPRLPRPRPRPMVTPRP	-0.071
RRIRCRPPRLPRPRPRPMYHPRP	-0.974
RRIRCRPPRLPRPRPRPMYIPRP	-0.675
RRIRCRPPRLPRPRPRPMYWPRP	0.0082
RRIRCRPPRLPRPRPRPNAMPRP	0.0678
RRIRCRPPRLPRPRPRPNAVPRP	0.0238
RRIRCRPPRLPRPRPRPNCDPRP	-0.233
RRIRCRPPRLPRPRPRPNCNPRP	-0.375
RRIRCRPPRLPRPRPRPNDTPRP	-0.461
RRIRCRPPRLPRPRPRPNFCPRP	-0.157
RRIRCRPPRLPRPRPRPNGFPRP	-0.0899
RRIRCRPPRLPRPRPRPNILPRP	-0.701
RRIRCRPPRLPRPRPRPNLHPRP	-0.619
RRIRCRPPRLPRPRPRPNNDPRP	-0.643
RRIRCRPPRLPRPRPRPNNFPRP	-0.493
RRIRCRPPRLPRPRPRPNPCPRP	-0.209
RRIRCRPPRLPRPRPRPNPDPRP	-0.306
RRIRCRPPRLPRPRPRPNPGPRP	-0.0632
RRIRCRPPRLPRPRPRPNSKPRP	0.297
RRIRCRPPRLPRPRPRPNSMPRP	-0.745
RRIRCRPPRLPRPRPRPNVEPRP	-0.216
RRIRCRPPRLPRPRPRPNWHPRP	-0.271
RRIRCRPPRLPRPRPRPNYEPRP	-0.442
RRIRCRPPRLPRPRPRPNYTPRP	-0.879

Sequence	shrunken log2 fold change
RRIRCRPPRLPRPRPRPPAMPRP	0.241
RRIRCRPPRLPRPRPRPPASPRP	0.723
RRIRCRPPRLPRPRPRPPAYPRP	0.176
RRIRCRPPRLPRPRPRPPFDPRP	0.415
RRIRCRPPRLPRPRPRPPFKPRP	0.313
RRIRCRPPRLPRPRPRPPGDPRP	0.346
RRIRCRPPRLPRPRPRPPGIPRP	3.39
RRIRCRPPRLPRPRPRPPGMPRP	0.326
RRIRCRPPRLPRPRPRPPHAPRP	1.04
RRIRCRPPRLPRPRPRPPLEPRP	0.186
RRIRCRPPRLPRPRPRPPLRPRP	0.35
RRIRCRPPRLPRPRPRPPLSPRP	0.312
RRIRCRPPRLPRPRPRPPNDPRP	0.383
RRIRCRPPRLPRPRPRPPNFPRP	-0.0525
RRIRCRPPRLPRPRPRPPPAPRP	1.46
RRIRCRPPRLPRPRPRPPQCPRP	0.182
RRIRCRPPRLPRPRPRPPQNPRP	0.801
RRIRCRPPRLPRPRPRPPRNPRP	1.05
RRIRCRPPRLPRPRPRPPSRPRP	0.558
RRIRCRPPRLPRPRPRPPSVPRP	0.292
RRIRCRPPRLPRPRPRPPTWPRP	0.0486
RRIRCRPPRLPRPRPRPPVVPRP	0.0152
RRIRCRPPRLPRPRPRPPWAPRP	0.317
RRIRCRPPRLPRPRPRPQANPRP	0.0603
RRIRCRPPRLPRPRPRPQDKPRP	-0.579

Sequence	shrunken log2 fold change
RRIRCRPPRLPRPRPRPQEHPRP	-0.389
RRIRCRPPRLPRPRPRPQIQPRP	-0.288
RRIRCRPPRLPRPRPRPQIWPRP	-0.226
RRIRCRPPRLPRPRPRPQLEPRP	-0.135
RRIRCRPPRLPRPRPRPQLPPRP	-0.104
RRIRCRPPRLPRPRPRPQLRPRP	-0.127
RRIRCRPPRLPRPRPRPQMCPRP	-0.157
RRIRCRPPRLPRPRPRPQPFPRP	0.00986
RRIRCRPPRLPRPRPRPQPLPRP	0.19
RRIRCRPPRLPRPRPRPQQFPRP	-0.217
RRIRCRPPRLPRPRPRPQSPPRP	-0.0224
RRIRCRPPRLPRPRPRPQSYPRP	-0.308
RRIRCRPPRLPRPRPRPQTVPRP	-0.275
RRIRCRPPRLPRPRPRPQVCPRP	-0.203
RRIRCRPPRLPRPRPRPQVEPRP	0.0599
RRIRCRPPRLPRPRPRPQYLPRP	-0.964
RRIRCRPPRLPRPRPRPRACPRP	0.24
RRIRCRPPRLPRPRPRPRAQPRP	0.4
RRIRCRPPRLPRPRPRPRCEPRP	0.0872
RRIRCRPPRLPRPRPRPRCQPRP	-0.146
RRIRCRPPRLPRPRPRPRCTPRP	-0.00347
RRIRCRPPRLPRPRPRPREHPRP	0.161
RRIRCRPPRLPRPRPRPREKPRP	1.12
RRIRCRPPRLPRPRPRPRERPRP	0.875
RRIRCRPPRLPRPRPRPRETPRP	0.647
